Assay results reported in patent publication US20140038267A1 (ALLELE BIOTECHNOLOGY AND PHARMACEUTICALS, published 2014).

Biological target: the molecule itself
Experiment: oligomeric state by size exclusion chromatography (self-association)
Text: FIG. 1. Size exclusion chromatography of LanYFP (tetramer), dLanYFP (dimer), and mNeonGreen (monomer). The exemplary proteins were detected with 480 nm excitation and 530 nm emission, compared to mCherry (monomer) detected with 540 nm excitation and 620 nm emission. Each exemplary fluorescent protein was run simultaneously with mCherry as a size standard with detection at both wavelengths; mCherry consistently eluted with the same peak shape and retention time. Curves are normalized to peak fluorescence.
Purified and dialyzed fluorescent protein samples were diluted into 50 mM Tris-HCl pH 7.5, 100 mM NaCl and filtered through 0.2 μm filters immediately prior to injection into a Shimadzu Nexera UHPLC equipped with a Waters BEH200 1.7 μm 4.6×150 mm size exclusion column and 4.6×30 mm guard column. Samples were run in the same buffer at a flow rate of 0.3 ml per minute for a total run time of 20 minutes. Fluorescence of the eluted protein was detected with an RF-20Axs fluorescence detector (Shimadzu) with 480 nm and 540 nm excitation and 530 nm and 620 nm emission wavelengths. Each LanYFP or variant sample was co-injected with mCherry, which had been purified under identical conditions and which served as a monomeric size standard.

B1: monomeric NeonGreen (mNeonGreen) (other)
chain: MVSKGEEDNMASLPATHELHIFGSINGVDFDMVGQGTGNPNDGYEELNLKSTKGDLQFSPWILVPHIGYGFHQYLPYPDGMSPFQAAMVDGSGYQVHRTMQFEDGASLTVNYRYTYEGSHIKGEAQVKGTGFPADGPVMTNSLTAADWCRSKKTYPNDKTIISTFKWSYTTGNGKRYRSTARTTYTFAKPMAANYLKNQPMYVFRKTELKHSKTELNFKEWQKAFTDVMGMDELYK
notes: not shown: N-terminal 6xHis tag and linker encoded by vector pNCS
Question: Does B1 bind?
Answer: no binding
